{
  "source": "the RNAGym collection of RNA variant scans (doi:10.7554/elife.90254)",
  "parents": {"B1": {"name": "OR4K15 (parent)", "chain": "GUUAACGGUCAUAGGCCAUGGAAACUAGGAGCACCAUUUCGCUGCCAGUGAAGAAAUGAACAAAGAAAAUCUGGGCCAGGCAGGCAUCAAAAGAAAUAGUCUUGCGCUCAACCAGAAAGUCUGUAAUCAUUUUAAGGGUA"}},
  "data": [
    {"variants_of": "B1", "test": "self-cleavage, relative activity (ratio to wild type); higher = more cleavage; in vitro, sequencing; the parent is a self-cleaving ribozyme", "values": [
      {"variant": "GUUAACGGUCAUAGGCCAUGGAAACUAGGAGCACCAUUUCGCUGCCAGUGAAGAAAUGAACAGAGAAAAUCUGGGCCAGGCAGGCAUCAAAAGAAAUAGUCUUGCGCUCAACCAGAAAGUCUGCAAUCAUUUUAAGGGUA", "note": "[A63G U124C]", "self-cleavage": 1.17},
      {"variant": "GUUAACGGUCAUAGGCCAUGGAAACUAGGAGCACCAUUUCGCUGCCAGUGAAGAAAUGAACAGAGAAAAUCUGGGCCAGGCAGGCAUCAAAAGAAAUAGUCUCGCGCUCAACCAGAAAGUCUGUAAUCAUUUUAAGGGUA", "note": "[A63G U103C]", "self-cleavage": 1.38},
      {"variant": "GUUAACGGUCAUAGGCCAUGGAAACUAGGAGCACCAUUUCGCUGCCAGUGAAGAAAUGAACAGAGAAAAUCUGGGCCAGGCAGGCAUCAAAAGAAAUAGUCUAGCGCUCAACCAGAAAGUCUGUAAUCAUUUUAAGGGUA", "note": "[A63G U103A]", "self-cleavage": 0.88},
      {"variant": "GUUAACGGUCAUAGGCCAUGGAAACUAGGAGCACCAUUUCGCUGCCAGUGAAGAAAUGAACAGAGAAAAUCUGGGCCAGGCAGGCAUCAAAAGAAAUAGUCUUGCGCUCAACCAGAAAGUCCGUAAUCAUUUUAAGGGUA", "note": "[A63G U122C]", "self-cleavage": 1.16},
      {"variant": "GUUAACGGUCAUAGGCCAUGGAAACUAGGAGCACCAUUUCGCUGCCAGUGAAGAAAUGAACAGAGAAAAUCUGGGCCAGGCAGGCAUCAAAAGAAAUAGUCUUGCGCUCAACCAGAAAGUCAGUAAUCAUUUUAAGGGUA", "note": "[A63G U122A]", "self-cleavage": 1.47},
      {"variant": "GUUAACGGUCAUAGGCCAUGGAAACUAGGAGCACCAUUUCGCUGCCAGUGAAGAAAUGAACAGAGAAAAUCUGGGCCAGGCAGGCAUCAAAAGAAAUAGUCUUGCGCUCAACCAGAAAGACUGUAAUCAUUUUAAGGGUA", "note": "[A63G U120A]", "self-cleavage": 0.94},
      {"variant": "GUUAACGGUCAUAGGCCAUGGAAACUAGGAGCACCAUUUCGCUGCCAGUGAAGAAAUGAACAGAGAAAAUCUGGGCCAGGCAGGCAUCAAAAGAAAUAGUCUUGCGCUCAACCAGAAAGCCUGUAAUCAUUUUAAGGGUA", "note": "[A63G U120C]", "self-cleavage": 1.27},
      {"variant": "GUUAACGGUCAUAGGCCAUGGAAACUAGGAGCACCAUUUCGCUGCCAGUGAAGAAAUGAACAGAGAAAAUCUGGGCCAGGCAGGCAUCAAAAGAAAUAUUCUUGCGCUCAACCAGAAAGUCUGUAAUCAUUUUAAGGGUA", "note": "[A63G G99U]", "self-cleavage": 1.14},
      {"variant": "GUUAACGGUCAUAGGCCAUGGAAACUAGGAGCACCAUUUCGCUGCCAGUGAAGAAAUGAACAGAGAAAAUCUGGGCCAGGCAGGCAUCAAAAGAAAUAGCCUUGCGCUCAACCAGAAAGUCUGUAAUCAUUUUAAGGGUA", "note": "[A63G U100C]", "self-cleavage": 2.31},
      {"variant": "GUUAACGGUCAUAGGCCAUGGAAACUAGGAGCACCAUUUCGCUGCCAGUGAAGAAAUGAACAGAGAAAAUCUGGGCCAGGCAGGCAUCAAAAGAAAUAGUCUUGCGCCCAACCAGAAAGUCUGUAAUCAUUUUAAGGGUA", "note": "[A63G U108C]", "self-cleavage": 0.02},
      {"variant": "GUUAACGGUCAUAGGCCAUGGAAACUAGGAGCACCAUUUCGCUGCCAGUGAAGAAAUGAACAGAGAAAAUCUGGGCCAGGCAGGCAUCAAAAGAAAUAGUCUUGCGCGCAACCAGAAAGUCUGUAAUCAUUUUAAGGGUA", "note": "[A63G U108G]", "self-cleavage": 0.03},
      {"variant": "GUUAACGGUCAUAGGCCAUGGAAACUAGGAGCACCAUUUCGCUGCCAGUGAAGAAAUGAACAGAGAAAAUCUGGGCCAGGCAGGCAUCAAAAGAAAUAGUCUUGCGCACAACCAGAAAGUCUGUAAUCAUUUUAAGGGUA", "note": "[A63G U108A]", "self-cleavage": 0.01},
      {"variant": "GUUAACGGUCAUAGGCCAUGGAAACUAGGAGCACCAUUUCGCUGCCAGUGAAGAAAUGAACAGAGAAAAUCUGGGCCAGGCAGGCAUCAAAAGAAAAAGUCUUGCGCUCAACCAGAAAGUCUGUAAUCAUUUUAAGGGUA", "note": "[A63G U97A]", "self-cleavage": 1.94},
      {"variant": "GUUAACGGUCAUAGGCCAUGGAAACUAGGAGCACCAUUUCGCUGCCAGUGAAGAAAUGAACAGAGAAAAUCUGGGCCAGGCAAGCAUCAAAAGAAAUAGUCUUGCGCUCAACCAGAAAGUCUGUAAUCAUUUUAAGGGUA", "note": "[A63G G83A]", "self-cleavage": 1.84},
      {"variant": "GUUAACGGUCAUAGGCCAUGGAAACUAGGAGCACCAUUUCGCUGCCAGUGAAGAAAUGAACAGAGAAAAUCUGGGCCAGGCAGGCACCAAAAGAAAUAGUCUUGCGCUCAACCAGAAAGUCUGUAAUCAUUUUAAGGGUA", "note": "[A63G U87C]", "self-cleavage": 1.59},
      {"variant": "GUUAACGGUCAUAGGCCAUGGAAACUAGGAGCACCAUUUCGCUGCCAGUGAAGAAAUGAACAGAGAAAAUCUGGGCCAGGCAGGCAACAAAAGAAAUAGUCUUGCGCUCAACCAGAAAGUCUGUAAUCAUUUUAAGGGUA", "note": "[A63G U87A]", "self-cleavage": 2.02},
      {"variant": "GUUAACGGUCAUAGGCCAUGGAAACUAGGAGCACCAUUUCGCUGCCAGUGAAGAAAUGAACAGAGAAAAUCUGGGCCAAGCAGGCAUCAAAAGAAAUAGUCUUGCGCUCAACCAGAAAGUCUGUAAUCAUUUUAAGGGUA", "note": "[A63G G79A]", "self-cleavage": 0.11},
      {"variant": "GUUAACGGUCAUAGGCCAUGGAAACUAGGAGCACCAUUUCGCUGCCAGUGAAGAAAUGAACAGAGAAAAUCUGGGCCAGGCAGGCAUCAAAAGAAAUAGUCUUGCGCUCAACCAGAAAGUCUAUAAUCAUUUUAAGGGUA", "note": "[A63G G123A]", "self-cleavage": 2.17},
      {"variant": "GUUAACGGUCAUAGGCCAUGGAAACUAGGAGCACCAUUUCGCUGCCAGUGAAGAAAUGAACAGAGAAAAUCUGGGCCAGGCAGACAUCAAAAGAAAUAGUCUUGCGCUCAACCAGAAAGUCUGUAAUCAUUUUAAGGGUA", "note": "[A63G G84A]", "self-cleavage": 1.86},
      {"variant": "GUUAACGGUCAUAGGCCAUGGAAACUAGGAGCACCAUUUCGCUGCCAGUGAAGAAAUGAACAGAGAAAAUCGGGGCCAGGCAGGCAUCAAAAGAAAUAGUCUUGCGCUCAACCAGAAAGUCUGUAAUCAUUUUAAGGGUA", "note": "[A63G U72G]", "self-cleavage": 0.29},
      {"variant": "GUUAACGGUCAUAGGCCAUGGAAACUAGGAGCACCAUUUCGCUGCCAGUGAAGAAAUGAACAGAGAAAAUCUGGGCCAGGCAGGCAUCAAAAGAAAUAGUCUUGCGCUCAACCAGAAAGUCUGUAAACAUUUUAAGGGUA", "note": "[A63G U127A]", "self-cleavage": 1.47}
    ]}
  ]
}
